Experimental data published in the supplement of paper PMC9112550, “Optimization of the antimicrobial peptide Bac7 by deep mutational scanning” (BMC Biology, 2022).

System: Escherichia coli TOP10
Experiment: shrunken log2 fold change of peptide-encoding DNA abundance (4.5 h post-induction vs induction); higher = less antimicrobial activity (less host growth inhibition)
Conditions: time post-induction: 4.5 h; library: site-saturation at positions 5, 18, 19, 20
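Further: peptides expressed intracellularly from a pBAD plasmid library in pooled LB shake-flask culture, induced with 0.3% L-arabinose, DNA abundance read by NGS, three biological replicates, DESeq2 with apeglm shrinkage.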

Sequence | shrunken log2 fold change
RRIRNRPPRLPRPRPRPKKMPRP | -0.233
RRIRNRPPRLPRPRPRPKKNPRP | -0.0707
RRIRNRPPRLPRPRPRPKLWPRP | -0.0235
RRIRNRPPRLPRPRPRPKNDPRP | -0.0949
RRIRNRPPRLPRPRPRPKPCPRP | 0.159
RRIRNRPPRLPRPRPRPKPMPRP | 0.375
RRIRNRPPRLPRPRPRPKPSPRP | 0.137
RRIRNRPPRLPRPRPRPKQGPRP | 0.0554
RRIRNRPPRLPRPRPRPKQNPRP | 0.0598
RRIRNRPPRLPRPRPRPKQQPRP | 0.163
RRIRNRPPRLPRPRPRPKREPRP | 0.0191
RRIRNRPPRLPRPRPRPKRLPRP | -0.0121
RRIRNRPPRLPRPRPRPKSDPRP | -0.168
RRIRNRPPRLPRPRPRPKSVPRP | 0.0186
RRIRNRPPRLPRPRPRPKTEPRP | -0.067
RRIRNRPPRLPRPRPRPKTSPRP | -0.0653
RRIRNRPPRLPRPRPRPKVRPRP | -0.0024
RRIRNRPPRLPRPRPRPKWFPRP | 0.00131
RRIRNRPPRLPRPRPRPLCEPRP | -0.107
RRIRNRPPRLPRPRPRPLCIPRP | -0.598
RRIRNRPPRLPRPRPRPLDRPRP | 0.0215
RRIRNRPPRLPRPRPRPLDTPRP | -0.0954
RRIRNRPPRLPRPRPRPLEVPRP | -0.118
RRIRNRPPRLPRPRPRPLFKPRP | -1.08
RRIRNRPPRLPRPRPRPLFLPRP | -0.547

Sequence | shrunken log2 fold change
RRIRNRPPRLPRPRPRPLFQPRP | -0.421
RRIRNRPPRLPRPRPRPLGFPRP | 0.0608
RRIRNRPPRLPRPRPRPLGYPRP | -0.165
RRIRNRPPRLPRPRPRPLHDPRP | -0.178
RRIRNRPPRLPRPRPRPLHKPRP | -0.101
RRIRNRPPRLPRPRPRPLHMPRP | -0.372
RRIRNRPPRLPRPRPRPLIMPRP | -0.48
RRIRNRPPRLPRPRPRPLIQPRP | -0.327
RRIRNRPPRLPRPRPRPLIYPRP | -0.114
RRIRNRPPRLPRPRPRPLKGPRP | -0.0139
RRIRNRPPRLPRPRPRPLMSPRP | -0.316
RRIRNRPPRLPRPRPRPLNAPRP | -0.662
RRIRNRPPRLPRPRPRPLNCPRP | -0.415
RRIRNRPPRLPRPRPRPLNMPRP | -0.636
RRIRNRPPRLPRPRPRPLPSPRP | 1.86
RRIRNRPPRLPRPRPRPLPTPRP | -0.0778
RRIRNRPPRLPRPRPRPLPYPRP | -0.542
RRIRNRPPRLPRPRPRPLQMPRP | -0.0999
RRIRNRPPRLPRPRPRPLQSPRP | -0.0505
RRIRNRPPRLPRPRPRPLSVPRP | -0.21
RRIRNRPPRLPRPRPRPLTGPRP | 0.0323
RRIRNRPPRLPRPRPRPLTHPRP | -0.566
RRIRNRPPRLPRPRPRPLVLPRP | -0.171
RRIRNRPPRLPRPRPRPLWHPRP | -0.185
RRIRNRPPRLPRPRPRPLWNPRP | -0.511

Sequence | shrunken log2 fold change
RRIRNRPPRLPRPRPRPLYEPRP | -0.675
RRIRNRPPRLPRPRPRPMANPRP | -9.3e-05
RRIRNRPPRLPRPRPRPMAQPRP | 0.0103
RRIRNRPPRLPRPRPRPMDCPRP | 0.0919
RRIRNRPPRLPRPRPRPMEFPRP | -0.136
RRIRNRPPRLPRPRPRPMEPPRP | -0.0573
RRIRNRPPRLPRPRPRPMFDPRP | -0.253
RRIRNRPPRLPRPRPRPMFFPRP | -0.189
RRIRNRPPRLPRPRPRPMFLPRP | -0.241
RRIRNRPPRLPRPRPRPMGRPRP | -0.117
RRIRNRPPRLPRPRPRPMHIPRP | -0.168
RRIRNRPPRLPRPRPRPMHSPRP | -0.0169
RRIRNRPPRLPRPRPRPMKDPRP | 0.145
RRIRNRPPRLPRPRPRPMKMPRP | 0.064
RRIRNRPPRLPRPRPRPMMYPRP | 0.025
RRIRNRPPRLPRPRPRPMNCPRP | -0.57
RRIRNRPPRLPRPRPRPMQDPRP | -0.0611
RRIRNRPPRLPRPRPRPMSVPRP | 0.0774
RRIRNRPPRLPRPRPRPMVHPRP | -0.00783
RRIRNRPPRLPRPRPRPMVYPRP | 0.0157
RRIRNRPPRLPRPRPRPMYEPRP | 0.0112
RRIRNRPPRLPRPRPRPMYMPRP | -0.05
RRIRNRPPRLPRPRPRPMYRPRP | -0.473
RRIRNRPPRLPRPRPRPNCLPRP | -0.116
RRIRNRPPRLPRPRPRPNCNPRP | -0.549

Sequence | shrunken log2 fold change
RRIRNRPPRLPRPRPRPNFGPRP | -0.0224
RRIRNRPPRLPRPRPRPNFKPRP | -0.0826
RRIRNRPPRLPRPRPRPNFVPRP | -0.317
RRIRNRPPRLPRPRPRPNGYPRP | -0.0975
RRIRNRPPRLPRPRPRPNHHPRP | -0.701
RRIRNRPPRLPRPRPRPNIRPRP | -0.103
RRIRNRPPRLPRPRPRPNKHPRP | -0.528
RRIRNRPPRLPRPRPRPNKQPRP | -0.0266
RRIRNRPPRLPRPRPRPNLYPRP | -0.515
RRIRNRPPRLPRPRPRPNMKPRP | -0.48
RRIRNRPPRLPRPRPRPNMWPRP | -0.274
RRIRNRPPRLPRPRPRPNNIPRP | -0.551
RRIRNRPPRLPRPRPRPNNMPRP | -0.278
RRIRNRPPRLPRPRPRPNPKPRP | 0.284
RRIRNRPPRLPRPRPRPNPQPRP | 0.166
RRIRNRPPRLPRPRPRPNQEPRP | -0.0316
RRIRNRPPRLPRPRPRPNRNPRP | -0.91
RRIRNRPPRLPRPRPRPNRRPRP | -0.133
RRIRNRPPRLPRPRPRPNRYPRP | -0.0433
RRIRNRPPRLPRPRPRPNSHPRP | -0.858
RRIRNRPPRLPRPRPRPNTDPRP | -0.249
RRIRNRPPRLPRPRPRPNTRPRP | -0.115
RRIRNRPPRLPRPRPRPNTSPRP | -0.0898
RRIRNRPPRLPRPRPRPNWEPRP | 0.0299
RRIRNRPPRLPRPRPRPNWPPRP | 0.142

Sequence | shrunken log2 fold change
RRIRNRPPRLPRPRPRPNWTPRP | -0.0743
RRIRNRPPRLPRPRPRPNYMPRP | -0.784
RRIRNRPPRLPRPRPRPNYRPRP | -0.264
RRIRNRPPRLPRPRPRPNYYPRP | -0.473
RRIRNRPPRLPRPRPRPPADPRP | 0.595
RRIRNRPPRLPRPRPRPPAIPRP | 0.276
RRIRNRPPRLPRPRPRPPCYPRP | -0.41
RRIRNRPPRLPRPRPRPPDCPRP | 0.036
RRIRNRPPRLPRPRPRPPDYPRP | -0.077
RRIRNRPPRLPRPRPRPPEDPRP | 0.174
RRIRNRPPRLPRPRPRPPETPRP | 0.314
RRIRNRPPRLPRPRPRPPEWPRP | -0.188
RRIRNRPPRLPRPRPRPPGGPRP | 0.748
RRIRNRPPRLPRPRPRPPHMPRP | -0.217
RRIRNRPPRLPRPRPRPPIFPRP | 0.0391
RRIRNRPPRLPRPRPRPPIKPRP | -0.279
RRIRNRPPRLPRPRPRPPKAPRP | 0.00248
RRIRNRPPRLPRPRPRPPLSPRP | 0.502
RRIRNRPPRLPRPRPRPPMLPRP | -0.0624
RRIRNRPPRLPRPRPRPPMMPRP | 0.0507
RRIRNRPPRLPRPRPRPPQMPRP | 0.234
RRIRNRPPRLPRPRPRPPSFPRP | -0.0746
RRIRNRPPRLPRPRPRPPSNPRP | -0.135
RRIRNRPPRLPRPRPRPPVKPRP | -0.123
RRIRNRPPRLPRPRPRPPWTPRP | 0.272

Sequence | shrunken log2 fold change
RRIRNRPPRLPRPRPRPPYCPRP | 0.0775
RRIRNRPPRLPRPRPRPPYLPRP | -0.269
RRIRNRPPRLPRPRPRPQANPRP | 0.202
RRIRNRPPRLPRPRPRPQAQPRP | -0.0086
RRIRNRPPRLPRPRPRPQCCPRP | -0.0308
RRIRNRPPRLPRPRPRPQCPPRP | -0.33
RRIRNRPPRLPRPRPRPQFAPRP | -0.0842
RRIRNRPPRLPRPRPRPQFSPRP | -0.306
RRIRNRPPRLPRPRPRPQILPRP | -0.265
RRIRNRPPRLPRPRPRPQIPPRP | 0.0549
RRIRNRPPRLPRPRPRPQKGPRP | 0.0289
RRIRNRPPRLPRPRPRPQKIPRP | -0.22
RRIRNRPPRLPRPRPRPQKKPRP | 0.0889
RRIRNRPPRLPRPRPRPQKVPRP | 0.007
RRIRNRPPRLPRPRPRPQLAPRP | -0.123
RRIRNRPPRLPRPRPRPQLFPRP | 0.177
RRIRNRPPRLPRPRPRPQPTPRP | 0.0158
RRIRNRPPRLPRPRPRPQSAPRP | -0.073
RRIRNRPPRLPRPRPRPQSVPRP | -0.0373
RRIRNRPPRLPRPRPRPQVSPRP | -0.434
RRIRNRPPRLPRPRPRPQWFPRP | -0.0391
RRIRNRPPRLPRPRPRPQYCPRP | -0.186
RRIRNRPPRLPRPRPRPQYPPRP | -0.571
RRIRNRPPRLPRPRPRPQYSPRP | -0.232
RRIRNRPPRLPRPRPRPRCAPRP | 0.708
